Twelve molecules from US20200299408A1 (Genentech, published 2020) can be followed below.

What is called Kd is a measure of binding affinity in units of concentration. The low end stands for tighter binding, the high end for weaker binding. Usually koff stands for the first-order rate constant of dissociation. A lower koff goes with a long-lived complex. The kon is the rate constant with which the complex forms. Low values mean slower complex formation, high ones faster complex formation. By EC50 is commonly meant the concentration at which the effect is half-maximal. Low values mean greater potency, high ones weaker potency.

Several values for one entry are separate records, joined by “and”; a condition that tells them apart may be missing. Equal entries are not always repeated. Where two headings read alike, the source gives them in different places.

Assay [1] concerns the target CD3 antigen of Figures 3B and 3C (not named). Nature of the assay: kinetic table of IgGs; method and antigen not stated.
The target is the same in assay [2]. The description is as above. This is another data set of the same source.
Assay [3] concerns the target T1, single chain human CD3ε-26mer-CD3γ (CD3εγ) (human).
T1 construct: also called human CD3εγ
T1 chain: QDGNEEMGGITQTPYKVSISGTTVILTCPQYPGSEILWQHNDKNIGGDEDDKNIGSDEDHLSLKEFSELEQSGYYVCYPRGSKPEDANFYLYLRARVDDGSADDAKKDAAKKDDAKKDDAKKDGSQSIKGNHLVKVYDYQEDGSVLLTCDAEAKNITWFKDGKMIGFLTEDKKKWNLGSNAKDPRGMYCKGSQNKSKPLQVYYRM
Description: Biacore full (multi-) cycle kinetics; KD relative to hu38E4.v1. An excerpt:
(§1) In addition, position 95 in HVR-H3 was also mutated to serine, threonine, or glutamate. Variants with these single point mutations were expressed as Fabs in HEK293 cells and initially screened with a single cycle kinetics method on a Biacore T100. Selected variants were also scaled up and purified for a conventional multi-cycle kinetics method. For single cycle kinetics, Biacore Series S CM5 sensor chips were immobilized with anti-human Fab antibodies (Human Fab capture kit, GE Healthcare). […] For conventional multi-cycle kinetics, human CD3εγ, cyno CD3εγ, or a 27-mer peptide were immobilized on Biacore Series S CM5 sensor chip using the amine coupling kit from Biacore. Serial 3-fold dilutions of each Fab variant were injected at a flow rate of 30 μl/min. Each sample was analyzed with a protocol of 3-minute association and 3-minute dissociation. In both methods, the Biacore chips were regenerated using 10 mM Glycine (pH 1.7). Binding response was corrected by blank subtraction and a 1:1Languir model of simultaneous fitting of kₒₙ and koff was used for kinetics analysis.
In general terms: In SPR one partner is held on a chip, and binding of the other changes the refractive index at the surface.

For assay [4], the target named is T1, single chain human CD3ε-26mer-CD3γ …. Description: Biacore full (multi-) cycle kinetics: antigen on chip, Fab injected; antigen not named on the sheet, taken as human CD3εγ.
Source text: as §1

The target is the same in assay [5]. Nature of the assay: Biacore, human CD3εγ on chip, TDB in flow through. As for the experimental part: (§2) Binding affinities for the each of the CD3/CD20 TDBs were tested by Biacore or FACS analysis, as described above for the anti-CD3 antibodies. Briefly, for Biacore binding assays, human CD3εγ was immobilized on Biacore Series S CM5 sensor chip using the amine coupling kit from Biacore and CD3/CD20 TDBs or Fab variants thereof were in the flow through. For FACS binding assays, either Bjab cells (for B cell antigens) or Jurkat cells (for CD3 antigen) were incubated with various concentrations of TDB antibodies at 4° C. for 30 minutes, then cells were washed and incubated with 2nd antibody (anti-huIgG-PE; BD Bioscience) for another 15 minutes, before cells were washed again and ready for FACS analysis.

For assay [6], the target named is T2, human CD3 on T cells (human, UniProt P07766 22-207).
T2 construct: whole, on cells; On cells CD3ε stands in the CD3/TCR complex; also called CD3 antigen; CD3ε
Description: FACS on Jurkat cells (CD3); EC50 table for the curves of FIGS. 21A-21B; source CHO (N297G). On the procedure:
as §2

B1: 40G5 (antibody, V domains shown)
VH: QVQLQQSGPELVKPGTSVKMSCKASGYTFTNYYIHWVRQRPGQGLEWIGWIYPGDVSTKYNEKFKGKTTLTADKSSSTAYMLLSGLTSEDSAIYFCARDGYSFYYFDYWGQGTTLTVSS
VL: DIVLTQSPSSLAVSAGEKVTMSCKSSQSLLNSRTRKNYLTWYQQKPGQSPKLLIYWASTRDSGVPDRFSGSGSGTDFTLTISSVQAEDLAVYYCTQSYTLRTFGGGTKLEIK
notes: mouse hybridoma clone; not the consensus 40G5c; also called mu40G5
In assay [1], B1 yielded a Kd of 0.159 nM, a koff of 2.48e-05 s⁻¹ and a kon of 156000 M⁻¹ s⁻¹. In assay [2], the affinity, expressed as Kd, was 0.86 nM; the dissociation rate constant (koff) came to 2.69e-05 s⁻¹; the on-rate (kon) was 31100 M⁻¹ s⁻¹.

B2: hu38E4.v1 H3 mutant D95S (Fab, V domains shown)
VH: EVQLVQSGAEVKKPGASVKVSCKASGFTFTSYYIHWVRQAPGQGLEWIGWIYPENDNTKYNEKFKDRVTITADTSTSTAYLELSSLRSEDTAVYYCARSGYSRYYFDYWGQGTLVTVSS
VL: DIVMTQSPDSLAVSLGERATINCKSSQSLLNSRTRKNYLAWYQQKPGQSPKLLIYWTSTRKSGVPDRFSGSGSGTDFTLTISSLQAEDVAVYYCKQSFILRTFGQGTKVEIK
notes: copies: 1 + 1
In the case of B2, the “ratio (fold)” value in assay [3] came out at 226 fold. Besides, in assay [4], the Kd stood at 180 nM, the koff amounted to 0.202 s⁻¹ and the on-rate (kon) was found to be 1.12e+06 M⁻¹ s⁻¹.

B3: 40G5c CHO (bispecific antibody, V domains shown)
VH 1: EVQLVESGGGLVQPGGSLRLSCAASGYTFTSYNMHWVRQAPGKGLEWVGAIYPGNGDTSYNQKFKGRFTISVDKSKNTLYLQMNSLRAEDTAVYYCARVVYYSNSYWYFDVWGQGTLVTVSS
VL 1: DIQMTQSPSSLSASVGDRVTITCRASSSVSYMHWYQQKPGKAPKPLIYAPSNLASGVPSRFSGSGSGTDFTLTISSLQPEDFATYYCQQWSFNPPTFGQGTKVEIK
VH 2: EVQLVQSGAEVKKPGASVKVSCKASGYTFTNYYIHWVRQAPGQGLEWIGWIYPGDGNTKYNEKFKGRATLTADTSTSTAYLELSSLRSEDTAVYYCARDSYSNYYFDYWGQGTLVTVSS
VL 2: DIVMTQSPDSLAVSLGERATINCKSSQSLLNSRTRKNYLAWYQQKPGQPPKLLIYWASTRESGVPDRFSGSGSGTDFTLTISSLQAEDVAVYYCTQSFILRTFGQGTKVEIK
modifications: CHO-produced full-length knob-into-hole IgG with N297G in the Fc; constant regions are not in the letters.
notes: CHO material; also called CD3/CD20 TDB 2H7v16/40G5c produced in CHO, N297G
In assay [5], B3 showed a Kd of 0.0515 µM, a dissociation rate constant (koff) of 0.0307 s⁻¹ and a kon of 597000 M⁻¹ s⁻¹. The concentration giving a half-maximal response (EC50) in assay [6] was 2.01 µg/mL and ~13 nM.

B4: hu38E4.v1 H3 mutant Y100A (Fab, V domains shown)
VH: EVQLVQSGAEVKKPGASVKVSCKASGFTFTSYYIHWVRQAPGQGLEWIGWIYPENDNTKYNEKFKDRVTITADTSTSTAYLELSSLRSEDTAVYYCARDGYSRAYFDYWGQGTLVTVSS
VL: DIVMTQSPDSLAVSLGERATINCKSSQSLLNSRTRKNYLAWYQQKPGQSPKLLIYWTSTRKSGVPDRFSGSGSGTDFTLTISSLQAEDVAVYYCKQSFILRTFGQGTKVEIK
notes: copies: 1 + 1
On to B4, for which the “ratio (fold)” value in assay [3] worked out at 521 fold. In assay [4], this molecule yielded a Kd of 414 nM, a koff of 0.0191 s⁻¹ and a kon of 46000 M⁻¹ s⁻¹.

B5: hu38E4.v1 H3 mutant Y100aA (Fab, V domains shown)
VH: EVQLVQSGAEVKKPGASVKVSCKASGFTFTSYYIHWVRQAPGQGLEWIGWIYPENDNTKYNEKFKDRVTITADTSTSTAYLELSSLRSEDTAVYYCARDGYSRYAFDYWGQGTLVTVSS
VL: DIVMTQSPDSLAVSLGERATINCKSSQSLLNSRTRKNYLAWYQQKPGQSPKLLIYWTSTRKSGVPDRFSGSGSGTDFTLTISSLQAEDVAVYYCKQSFILRTFGQGTKVEIK
notes: copies: 1 + 1
As to B5, the “ratio (fold)” value in assay [3] turned out to be 110 fold. Further, in assay [4], the Kd worked out at 87 nM, the koff was 0.0246 s⁻¹ and the kon is 283000 M⁻¹ s⁻¹.

B6: hu38E4.v1 L3 mutant F92A (Fab, V domains shown)
VH: EVQLVQSGAEVKKPGASVKVSCKASGFTFTSYYIHWVRQAPGQGLEWIGWIYPENDNTKYNEKFKDRVTITADTSTSTAYLELSSLRSEDTAVYYCARDGYSRYYFDYWGQGTLVTVSS
VL: DIVMTQSPDSLAVSLGERATINCKSSQSLLNSRTRKNYLAWYQQKPGQSPKLLIYWTSTRKSGVPDRFSGSGSGTDFTLTISSLQAEDVAVYYCKQSAILRTFGQGTKVEIK
notes: copies: 1 + 1
Turning to B6, in assay [3], the “ratio (fold)” value is 20 fold. In assay [4], this molecule registered a Kd of 15.9 nM, a koff of 0.0232 s⁻¹ and an on-rate (kon) of 1.46e+06 M⁻¹ s⁻¹.

B7: 38E4v9 CHO (bispecific antibody)
anti-CD20 arm heavy chain: EVQLVESGGGLVQPGGSLRLSCAASGYTFTSYNMHWVRQAPGKGLEWVGAIYPGNGDTSYNQKFKGRFTISVDKSKNTLYLQMNSLRAEDTAVYYCARVVYYSNSYWYFDVWGQGTLVTVSS
anti-CD20 arm light chain: DIQMTQSPSSLSASVGDRVTITCRASSSVSYMHWYQQKPGKAPKPLIYAPSNLASGVPSRFSGSGSGTDFTLTISSLQPEDFATYYCQQWSFNPPTFGQGTKVEIK
anti-CD3 arm heavy chain: EVQLVQSGAEVKKPGASVKVSCKASGFTFTSYYIHWVRQAPGQGLEWIGWIYPENDNTKYNEKFKDRVTITADTSTSTAYLELSSLRSEDTAVYYCARDGYSRAYFDYWGQGTLVTVSS
anti-CD3 arm light chain: DIVMTQSPDSLAVSLGERATINCKSSQSLLNSRTRKNYLAWYQQKPGQSPKLLIYWTSTRKSGVPDRFSGSGSGTDFTLTISSLQAEDVAVYYCKQSFILRTFGQGTKVEIK
notes: also called CD3/CD20 TDB 2H7v16/38E4v9
Regarding B7, in assay [5], binding was characterised by a dissociation constant (Kd) of 64.2 µM, the off-rate constant (koff) turned out to be 1.02 s⁻¹ and the kon came out at 15900 M⁻¹ s⁻¹. The EC50 in assay [6] was 15 µg/mL and ~97 nM.

B8: hu38E4.v1 H3 mutant D95T (Fab, V domains shown)
VH: EVQLVQSGAEVKKPGASVKVSCKASGFTFTSYYIHWVRQAPGQGLEWIGWIYPENDNTKYNEKFKDRVTITADTSTSTAYLELSSLRSEDTAVYYCARTGYSRYYFDYWGQGTLVTVSS
VL: DIVMTQSPDSLAVSLGERATINCKSSQSLLNSRTRKNYLAWYQQKPGQSPKLLIYWTSTRKSGVPDRFSGSGSGTDFTLTISSLQAEDVAVYYCKQSFILRTFGQGTKVEIK
notes: copies: 1 + 1
Regarding B8, the “ratio (fold)” value in assay [3] was determined as 43 fold. In assay [4], this molecule gave a Kd of 34.2 nM, an off-rate (koff) of 0.00175 s⁻¹ and an on-rate (kon) of 51100 M⁻¹ s⁻¹.

B9: hu38E4.v1 H3 mutant G96A (Fab, V domains shown)
VH: EVQLVQSGAEVKKPGASVKVSCKASGFTFTSYYIHWVRQAPGQGLEWIGWIYPENDNTKYNEKFKDRVTITADTSTSTAYLELSSLRSEDTAVYYCARDAYSRYYFDYWGQGTLVTVSS
VL: DIVMTQSPDSLAVSLGERATINCKSSQSLLNSRTRKNYLAWYQQKPGQSPKLLIYWTSTRKSGVPDRFSGSGSGTDFTLTISSLQAEDVAVYYCKQSFILRTFGQGTKVEIK
notes: copies: 1 + 1
In the case of B9, in assay [3], the “ratio (fold)” value is 2.4 fold. In assay [4], this molecule showed a dissociation constant Kd of 1.9 nM, an off-rate constant (koff) of 0.00357 s⁻¹ and a kon of 1.86e+06 M⁻¹ s⁻¹.

B10: hu38E4.v1 L3 mutant I93A (Fab, V domains shown)
VH: EVQLVQSGAEVKKPGASVKVSCKASGFTFTSYYIHWVRQAPGQGLEWIGWIYPENDNTKYNEKFKDRVTITADTSTSTAYLELSSLRSEDTAVYYCARDGYSRYYFDYWGQGTLVTVSS
VL: DIVMTQSPDSLAVSLGERATINCKSSQSLLNSRTRKNYLAWYQQKPGQSPKLLIYWTSTRKSGVPDRFSGSGSGTDFTLTISSLQAEDVAVYYCKQSFALRTFGQGTKVEIK
notes: copies: 1 + 1
B10: the “ratio (fold)” value in assay [3] came out at 5.1 fold. In assay [4], this molecule displayed a Kd of 4 nM, a koff of 0.0124 s⁻¹ and a kon of 3.08e+06 M⁻¹ s⁻¹.

B11: 38E4 (antibody, IgG3, V domains shown)
VH: QVQLQQSGPELVKPGASVTISCTASGFTFTSYYIHWVRQRPGQGLEWIGWIYPENDNTKYNEKFKDKATLTADTSSSTAYMQLSSLTSEDSAVYYCARDGYSRYYFDYWGQGTTLTVSS
VL: DIVMTQSPSFLAVSAGEKVTMSCKSSQSLLNSRTRKNYLAWYQQRPGQSPKLLIYWTSTRKSGVPDRFTGSGSGTDFTLTISSVQAEDLAIYYCKQSFILRTFGGGTKLEIK
notes: mouse hybridoma clone; also called mu38E4
In assay [1], B11 yielded a Kd of 0.0783 nM, a koff of 3.45e-05 s⁻¹ and a kon of 441000 M⁻¹ s⁻¹. Further, in assay [2], the affinity, expressed as Kd, was 0.95 nM; the koff came out at 5.32e-05 s⁻¹; the kon turned out to be 56000 M⁻¹ s⁻¹.

B12: Rab17 (antibody, rabbit IgG1, V domains shown)
VH: QSVKESEGGLFKPTDTLTLTCTVSGCSLSSCAISWVRQAPGKGLEWIGFMSVTGSAYYANWAKSRSTITRNTNENTVTLKMTRLTAADTAIYFCARVGIGSGLNIWG
VL: DMTQTPSSKSVPVGDTVTINCQASETVYSNNYLAWFQQKPGQPPKRLIYGVSTLDSGVPPRFSGSGSGTQFTLTISDVVCDDAATYYCAGYKTSSSYAIAFGGGTELEIL
notes: clone from the rabbit immunization
In assay [2], B12 had a dissociation constant Kd of 8.46 nM, a dissociation rate constant (koff) of 0.000242 s⁻¹ and a kon of 28600 M⁻¹ s⁻¹.
